Measured values taken from patent US6455314 (GENVEC, dated 2002).
Numbering of substitutions follows the chain as printed. Names and notes keep the numbering of the source.

T1: coxsackievirus and adenovirus receptor (CAR) (UniProt P78310 20-365)
T1 sequence: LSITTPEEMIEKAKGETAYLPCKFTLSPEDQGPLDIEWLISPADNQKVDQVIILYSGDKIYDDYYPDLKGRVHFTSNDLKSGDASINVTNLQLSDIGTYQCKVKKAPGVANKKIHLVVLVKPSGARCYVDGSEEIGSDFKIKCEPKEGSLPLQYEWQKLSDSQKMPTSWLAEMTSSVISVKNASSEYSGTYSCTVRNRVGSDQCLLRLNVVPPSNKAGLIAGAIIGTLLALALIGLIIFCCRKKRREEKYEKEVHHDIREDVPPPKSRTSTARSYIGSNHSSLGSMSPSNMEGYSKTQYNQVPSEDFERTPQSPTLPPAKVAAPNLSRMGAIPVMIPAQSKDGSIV

B1: native Ad5 fiber knob (ligand)
chain: GAITVGNKNNDKLTLWTTPAPSPNCRLNAEKDAKLTLVLTKCGSQILATVSVLAVKGSLAPISGTVQSAHLIIRFDENGVLLNNSFLDPEYWNFRNGDLTEGTAYTNAVGFMPNLSAYPKSHGKTAKSNIVSQVYLNGDKTKPVTLTITLNGTQETGDTTPSAYSMSFSWDWSGHNYINEIFATSSYTFSYIAQE
B2: Ad5-3 mutant Ad5 fiber knob RLNAEK(412-417)SLNGGG (ligand)
chain: B1 chain with R26S, A29G, E30G, K31G
B3: Ad5-4 mutant Ad5 fiber knob K(417)G (ligand)
chain: B1 chain with K31G
B4: Ad5-8 mutant Ad5 fiber knob Y(477)A (ligand)
chain: B1 chain with Y91A
B5: Ad5-1 mutant Ad5 fiber knob S408E (ligand)
chain: B1 chain with S22E
B6: Ad5-2 mutant Ad5 fiber knob P409A (ligand)
chain: B1 chain with P23A
B7: Ad5-5 mutant Ad5 fiber knob K(420)A (ligand)
chain: B1 chain with K34A
B8: Ad5-9 mutant Ad5 fiber knob EGTAY(487-491)GGGGG (ligand)
chain: B1 chain with E101G, T103G, A104G, Y105G

What was measured:
[1] = target: coxsackievirus and adenovirus receptor (CAR) (UniProt P78310); experiment: cell-based or functional assay
[2] = target: T1, coxsackievirus and adenovirus receptor …; experiment: cell-based or functional assay

Row | Molecule | Competition (from IC50 of blocking Ad5-lacZ transduction of A549 cells, β-galactosidase activity) [1] [%] | Competition (from IC50 of blocking Ad5-lacZ transduction of A549 cells, β-galactosidase activity) [2] [%]
1 | Ad5-10 mutant Ad5 fiber knob, deletion TAYT(489-492) (from UniProt P11818 387-581) (ligand) | < 0.1 | 
2 | Ad5-6 mutant Ad5 fiber knob, deletion DPE(474-476) (from UniProt P11818 387-581) (ligand) | < 20 | 
3 | F3K (native) (from UniProt P04501 119-319) (ligand) | < 0.1 | 
4 | Ad5-7 mutant Ad5 fiber knob, deletion DPEY(474-477) (from UniProt P11818 387-581) (ligand) | < 0.1 | 
5 | B1 |  | 100
6 | B2 |  | < 0.1
7 | B3 |  | < 0.1
8 | B4 |  | < 0.1
9 | B5 |  | < 0.1
10 | B6 |  | < 1
11 | B7 |  | < 0.1
12 | B8 |  | < 0.1
